Reference: patent US20260151494A1 (ARO BIOTHERAPEUTICS, published 2026)
Positions count from the first letter of the chain named.

B1: CD71-binding FN3 domain SEQ ID NO: 254 (designed binder)
chain: MSLPAPKNLVVSRVTEDSARLSWTAPDAAFDSFEIGYFENLYLGEAIVLWVPGSERSYDLTGLKPGTEYWVQIGGVKGGNWSAPLSAIFTT
B2: CD71-binding FN3 domain SEQ ID NO: 255 (designed binder)
chain: B1 chain with A25T, G36A, N40I, L41A, Y42W, W50T, N80A, W81Y, A83T
B3: CD71-binding FN3 domain SEQ ID NO: 256 (designed binder)
chain: B1 chain with A5V, W50T
B4: CD71-binding FN3 domain SEQ ID NO: 257 (designed binder)
chain: B1 chain with R13H, F38W, L41A, L43K, W50T, W70V, Q72F, N80V, A83V
B5: CD71-binding FN3 domain SEQ ID NO: 263 (designed binder)
chain: B1 chain with W50T, A83S
B6: CD71-binding FN3 domain SEQ ID NO: 268 (designed binder)
chain: B1 chain with W50T, L60P
B7: CD71-binding FN3 domain SEQ ID NO: 269 (designed binder)
chain: B1 chain with L41D, L43F, W50T, W70V, Q72F
B8: CD71-binding FN3 domain SEQ ID NO: 271 (designed binder)
chain: B1 chain with V14I, F38W, L41A, L43K, W50T, W70V, Q72F, N80V, A83V
B9: CD71-binding FN3 domain SEQ ID NO: 272 (designed binder)
chain: B1 chain with G36A, F38G, N40A, L41A, L43D, V48A, W50L
B10: CD71-binding FN3 domain SEQ ID NO: 274 (designed binder)
chain: B1 chain with G36V, F38W, N40Q, L41V, Y42G, L43V, W50T, N80G, W81F, A83E
B11: CD71-binding FN3 domain SEQ ID NO: 275 (designed binder)
chain: B1 chain with W50T, S86V, I88E
B12: CD71-binding FN3 domain SEQ ID NO: 276 (designed binder)
chain: B1 chain with G36A, N40L, L41D, L43V, W50T, N80T, A83G, T91I
B13: CD71-binding FN3 domain SEQ ID NO: 277 (designed binder)
chain: B1 chain with N40L, L41T, L43Y, W50T, N80G, W81F, A83E
B14: CD71-binding FN3 domain SEQ ID NO: 278 (designed binder)
chain: B1 chain with W50T, Y58H
B15: CD71-binding FN3 domain SEQ ID NO: 280 (designed binder)
chain: B1 chain with P26L, W50T
B16: CD71-binding FN3 domain SEQ ID NO: 282 (designed binder)
chain: MSLPAPKNLVVSRVTEDSARLSWTAPDAAFDSFDIGYFELTWYGEAIVLTVPGSERSYDLTGLKPGTEYWVSIGGVKGGRFSEPLYARFTT
B17: CD71-binding FN3 domain SEQ ID NO: 283 (designed binder)
chain: MSLPAPKNLVVSRVTEDSARLSWTAPDAAFDSFEIAYQELSLWGEAIVLTVPGSERSYDLTGLKPGTEYYVHIGGVKGGIWSSPLSAYSTT
B18: CD71-binding FN3 domain SEQ ID NO: 284 (designed binder)
chain: B1 chain with F38W, L41A, L43K, W50T, W70M, Q72F, N80V, A83V

What was measured:
[1] = target: T1, human CD71 extracellular domain (CD71-ECD) (human, UniProt P02786 89-760); test: primary ELISA; further: test concentration or dose not given here
T1 construct: also called hCD71; human CD71-ECD
T1 sequence (P02786 89-760): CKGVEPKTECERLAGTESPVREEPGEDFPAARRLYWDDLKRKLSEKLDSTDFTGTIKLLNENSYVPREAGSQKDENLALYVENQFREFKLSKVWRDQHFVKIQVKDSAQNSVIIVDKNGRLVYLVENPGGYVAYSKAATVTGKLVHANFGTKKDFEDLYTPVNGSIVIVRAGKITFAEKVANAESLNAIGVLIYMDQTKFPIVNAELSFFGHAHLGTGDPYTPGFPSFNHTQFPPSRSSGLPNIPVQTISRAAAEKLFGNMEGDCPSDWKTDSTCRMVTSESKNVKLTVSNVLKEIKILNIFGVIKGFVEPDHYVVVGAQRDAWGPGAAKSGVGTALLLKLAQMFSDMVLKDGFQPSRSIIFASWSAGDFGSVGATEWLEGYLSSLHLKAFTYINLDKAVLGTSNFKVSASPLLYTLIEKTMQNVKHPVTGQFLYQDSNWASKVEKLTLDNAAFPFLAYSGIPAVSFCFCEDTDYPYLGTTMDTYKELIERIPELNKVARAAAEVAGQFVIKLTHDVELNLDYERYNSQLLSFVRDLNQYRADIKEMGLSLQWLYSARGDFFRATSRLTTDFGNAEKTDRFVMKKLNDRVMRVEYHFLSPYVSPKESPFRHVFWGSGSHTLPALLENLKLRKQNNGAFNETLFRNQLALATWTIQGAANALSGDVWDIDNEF

[2] = target: T1, human CD71 extracellular domain …; test: primary ELISA, RLU ratio to HSA

Binder	RLU [1]	hCD71:HSA [2]
B1	3.29e+06 RLU	289
B2	3.73e+06 RLU	90
B3	2.39e+06 RLU	193
B4	2.83e+06 RLU	378
B5	3.32e+06 RLU	208
B6	4.1e+06 RLU	133
B7	4.35e+06 RLU	348
B8	2.57e+06 RLU	180
B9	2.83e+06 RLU	289
B10	2.37e+06 RLU	296
B11	3.4e+06 RLU	322
B12	3.13e+06 RLU	62
B13	4.13e+06 RLU	276
B14	3.46e+06 RLU	435
B15	3.21e+06 RLU	103
B16	3.2e+06 RLU	240
B17	2.07e+06 RLU	77
B18	2.37e+06 RLU	195
